# The DeepSol protein solubility set
# Experiment: soluble on expression in E. coli; label from the status in PepcDB or PDB records
row,Sequence,soluble on expression in E. coli
1,MELELDDDVFFADISKQLNLLITDEDEQNPISLSSSVSFQGLFRGNYQTSATPYMMYNEQINYNVIRESKGTGVFIPRSSQPRRKHNHHPHQKKQGRFIGSFIPKQQFPHHGHDNNLTTLNNNNQESITFHHASTNPRRTYRDAASLFT,not soluble
2,MSLNDSFNPNENNPAEPSMELVVNGSGINVRSDAGIEHRVVRKASNGDRYKVLAVKNGWYKVGNGEWIFYDPSWIKINYNVPKEEVQKPKEEVQKPKDDITGGWFEGHIRKLNSLGIMQGEGNGVFAPYRNVTRAEFAKLISNALKLPEGNKSFVDINEAHPSLHDGIKRCASAGIINGRGEGIFDPNSPITREEVSIMIDKALRYKGITGELVALPFTDKHLITYKESVQRLYSLKVVNGIGNNEFDPRGTATRGQAAAFIVKMLDSMQKEGHHHHHH,soluble
3,AWVDQTPRTITKETGESLTIKCVLKDHSCGLSSTTWYRTQLGSTNEKTISIGGRYDETVDKGSKSFSLRISDLRVEDSGTYKCQADYSPSCYSYPSLESAVEGAGTVLTVK,soluble
4,MRVAVLGAGAWGTALAVLLASKGVPTRLWARRKAQAEALKAMRENRDYLPGVALPAYLYPTHDPEEALEGAELAVLAVPSKALRETVAGLPPAPWYVSATKGLFYGEEGVRTPAEVVEALTQRPVVALSGPNHAEEVARFLPTASVAAGPEDLARRVQALFSGPTFRVYTSRDRRGVELGGAVKNVLALAAGMVDGLRLGDNAKAALLTRGLKEMVRFGTALGGEEATFYGLAGLGDLLATAYSLHSRNRMAGESLVRGVDREALEARGVVEGLYAVKAMVAWGKEQGVELPVAEAVHRVAHEGLDPLAALKALMAREPKEE,soluble
5,MALMSDKFLSIVIPAYNSEKYIEKNLMFLSRQTSNNFEVIVVDDGSTDNTCEVSEACLENFKINHRVIRCEENRGQSVARNIGINYSRGKYILFLDSDDFAENNLVQILERNMFNEPDIVFFDYKRIKEGDSVNVNIAQNFEFGKIKSGEEVFNAYKDNKIRLWTGSLVYNKEFLNKNKLRFLEGAHGAEDLNFIFKALLSSKKVRGIEDSLVFYCQRGDSLTNNPDIYKNITVVESMEDVAKFIDENKLDKKLKEAIEKEFTCEHIMYQILGYLNSETKKDTLSVLKNKNVKKYLKKATIKTNRYGRSMYTYMKMAAYFPNLFIKTYLKNTGKLEHHHHHH,soluble
6,MKKVIGIGEYAVMKNPGVIVTLGLGSCVAVCMRDPVAKVGAMAHVMLPDSGGKTDKPGKYADTAVKTLVEELKKMGAKVERLEAKIAGGASMFESKGMNIGARNVEAVKKHLKDFGIKLLAEDTGGNRARSVEYNIETGKLLVRKVGGGEQLEIKEI,soluble
7,MGSDKIHHHHHHMKQPLAHRMRPTNIQEIIGQQHLVGEGKILWRMVQANHFQSMILYGPPGTGKTSIASAIAGSTGTPFRLLNAVTHNKKDMEVVVQEAKMHRHLVLILDEVHRLDKAKQDFLLPHLESGLLTLIGATTSNPFHAINSAIRSRCQIFELHALTEDDLLIGLKRALEDKEKGLGEYDVTVTPEALHHFANASGGDMRSAYNALELAVLSSFTTDDKAAEITLEIAEECLQKKSFVHDKGGDAHYDVLSAFQKSVRGSDVNAALHYLARLIEAGDLQSIGRRLLIMAYEDIGLASPQAGPRTLAAIESAERVGFPEARIPLANAVIELCLSPKSNSAYKALDAALHDLRNGQTGDIPSHLKDSHYKGAEALGRGIGYLYPHDHPNGWVQQQYLPDKIKNKQYYKPKMTGKFEQALSTVYERLQSSNKTKNKG,not soluble
8,MGHHHHHHGGHMSLQRGCDGCKQNQSREPATIDGFMPKAQESIMGQQKQRNRRWVLASRPHGAPVPENFRLEEDDVATPGEGQVLLRTVYLSLDPYMRGRMSDEPSYSPPVDIGGVMVGGTVSRVVESNHPDYQSGDWVLGYSGWQDYDISSGDDLVKLGDHPQNPSWSLGVLGMPGFTAYMGLLDIGQPKEGETLVVAAATGPVGATVGQIGKLKGCRVVGVAGGAEKCRHATEVLGFDVCLDHHADDFAEQLAKACPKGIDIYYENVGGKVFDAVLPLLNTSARIPVCGLVSSYNATELPPGPDRLPLLMATVLKKRIRLQGFIIAQDYGHRIHEFQREMGQWVKEDKIHYREEITDGLENAPQTFIGLLKGKNFGKVVIRVAGDDEGGS,soluble
9,MENLKIRYIDTRKIGTVSGVKVPVKKGYKIVVEDEEKGEDIVEVLGYSREESKNGIQPRFVRVANKRDLEIFKKNMRESERAFEICKEKIKEHGLDMHLLKAYIPLNRKKVFFYYLAEERVDFRNLVRDLAKIFKRRIEMRQIGVRDAVQMKGWIGRCMRETCCSQFMENFQSISLRDITEQNLPLSPSKFTGPCGRLVCCMAFERENYLLKILFPEPGTKLCYNKQEVTLLEVDPLRETVVLQYDELGKKVELGVRDMLPKGYEKALEHCRSCQFCCRRVYEEATEHEIVKSSAELEHHHHHH,not soluble
10,MPFLPPLTPPTELYLGIQLPNPISILVNYLPVSQTPIETLRNLVYSCNINTLAIDEFMTWPSLLQPESTFRSYFELLVERGSIPAVYLEGVRQASNFVTVAQGLSVMTTVALSDPFACFATGLFLTCTGNHLDFLPISEKFWEMTPTLEAGHAVAEMVMYHISQLHTENARRWERSWRFVHPPSCVGQGDCYILLEAKLLRFKLLYSALLSSLLV,not soluble
11,MKTYYEQDANVGLLQGKTVAVIGYGSQGHAQAQNLRDSGVEVVVGVRPGKSFEVAKADGFEVMSVSEAVRTAQVVQMLLPDEQQAHVYKAEVEENLREGQMLLFSHGFNIHFGQINPPSYVDVAMVAPKSPGHLVRRVFQEGNGVPALVAVHQDATGTALHVALAYAKGVGCTRAGVIETTFQEETETDLFGEQAVLCGGVTALVKAGFETLTEGGYRPEIAYFECLHELKLIVDLMYEGGLTNMRHSISDTAEFGDYVTGSRIVTDETKKEMKRVLTEIQQGEFAKKWILENQAGRPTYNAMKKAEQNHQLEKVGEELREMMSWIHAPKELVKK,not soluble
12,MNGSRSTFLYLLAAAGLALTPAAQADRGNDVVARLNQLYNDTRQDCGGPSKPAFLCSGVLFRATWPSTDYMFYSISPKSQKSGGVSASYLRKDAKYRKLAYGLKSGFIFDTIFGNPKDHQDYAVLCSFPIDAATDDRAQQGCTDSRRTPNSVEKSCQDINVSTAEQWAANYRQNRGDHSRQCSFDVRDERNTAAGPAFYQSIRAMAQIADESFTTQNELRLAKWEENPPKSPSILAAFYTEDAGLEGARLNQIQWYQSVQAFLPIINMRLPQTRQQDAQFAYDGRKQAIYPTSEKNACERYVESATWVERDDPGFRKKIMTLEVVPTDCGRKIQDNQTNNFFNELVVDHYLDSEWKDNPDNRDSNIGSMRRQLVCHFNVARNKPEWNLEPSRPYTSNEDSIAKGCNNT,not soluble
13,MGSDKIHHHHHHVPLNSPLQLSLPVHLPDDETFNSYYPAAGNDELIQKLRANAEGQGEAAIYLWGPVKSGRTHLMHAACAHANEVERRSFYIPLGIHASISTALLEGLEQLDLVCIDDVDAIAGHPVWEEAIFDLYNRVAEHKNCALVVSGSSSPADAGFLLPDLVSRMQWGLNYQLQPMADDEKLAALQRRAAMRGLQLPEDVGRFLLNRMARDLRTLFDVLDKLDKASLVHQRKLTIPFAKEMLHL,not soluble
14,MRSLIGMTFLNSSVGQRRLRQNGIVLRLGPVVADRRRATLPHRQGHCLDRQDLETLLLWLQRHFLCVPLEHLLEGPAPACLRIALSVDGNPAELAEQVYPLLERYEMPASAFIGGDPRSWREAVAETLWQADATAAGPLLELLEGYSGAALMAVFERTGDDQRRSRNLDLLLRKLERLDPASQQALHAACPVPAPYSAGDWERVRRLENSGLLRFGLRGQEPHPSAGLCAEDCLGRAHRQLQQHCAAPLPVFCQARTTPAAQPGLRAALGRLGYRFAFGARNGLVDTRCDPLDLPRIEVDAAIAARPGRLAWHIYRGARP,not soluble
15,MGSDKIHHHHHHMAMAHGRRRVFGSVEHRKIDMSFRPLFGSGRIRTAGEQPAQPTTASWPGSSVVFDRRRWTCREAELRWTAPHHVLVLTEEGATSQTSIRSDGKMVYEGRDRSGAITFVPAGVERLGAYRDVDLTYSALWIDPRSISPASEHLKDLPVLINKSDTVISALLKSLSSEISNGHIPDSAYVDHLIALVTLRIRGFADEPVPAPRHDSLGSRVVKRVRDYVDAHLDGDISLGDLADVAGVASDSFARRFKVTTGFAPYAYVLEERIRRSEALLCETDTTLSAIALACGFSSQSHFTTTFKRLRGVTPQAYRSKVIPES,not soluble
16,MGSDKIHHHHHHVVLAVVVGRRTASLALRGRGGRSKGGIHLPQNRIRFGSVGCRDLRSQLRRLIEDETMSEPAEAFYLPLGDNRYEPTRATESPWDSQAQHGGPPTALLGHLLDTAAGPDKRLARITADFLGAIPRRPFRVDTVEIRPGRRIALLEARMVFDDRPAVVARAWAIETGPTPPATGEQLHPPALADADPALDLTGWGYGEAIEWRYTRGGYGTADSAADVWTRVRIPLIAGEKLTGLARTLVVADSANGVSAALPMEHWLFIPPSITVTLARFPDTEWVHMACRSHLSPDGLGVSHATLSDTDGYLGEVSQPLLVRPR,not soluble
17,MSLKKDYGSQEDFTQVWNTTMKGLKCCGFTNYTDFEDSPYFKENSAFPPFCCNDNVTNTANETCTKQKAHDQKVEGCFNQLLYDIRTNAVTVGEGHHHHHH,soluble
18,MGSDKIHHHHHHMIRPSLAHTIISEVRKLLDEDLIVVDPSGTIIASTDKERMGSFHEGALISYNERRRLIITQDDESKLTGVKAGINLPIFFQDQVVGVIGITGDPSKVSAYGELLRKMTELLIKEKYYAEQLEWHARTLEAFVFDWVQQKEWTRSFINQAKMLHIDLTVSRQVIIGYYGQHNRERIQREWWIDVSQTFTRQKDDLLVRWGNDRFVMLLANKAEGKERAVHSIQQIQKYIQNKYRHSLSFGVGQSVCPQELYRSFEQAERALAVAVRTQSIVFEEDLRLDMCLQDVKKQTRVDFVQRTLEPIMKDEDLLETLKTFIARNQSFKETAETLHIHINTLHYRLKKMEDKTGLNPRDFHDLTTLYLGLLFLEDNLKN,not soluble
19,MSESQLRKGAVELIVLGLLSSRPSYGGQLVERFREEAGLEISTGTLYPLLARLRKSGLVVTAWEESPVGPPRKIYKLAKPGKNRLLQMRREWEALDCAVKRTTQKGIR,not soluble
20,MGKPVVAIVGRPNVGKSTIFNRIAGERISIVEDTPGVTRDRIYSSAEWLNYDFNLIDTGGIDIGDEPFLAQIRQQAEIAMDEADVIIFMVNGREGVTAADEEVAKILYRTKKPVVLAVNKLDNTEMRANIYDFYSLGFGEPYPISGTHGLGLGDLLDAVAEHFKNIPETKYNEEVIQFCLIGRPNVGKSSLVNAMLGEERVIVSNVAGTTRDAVDTSFTYNQQEFVIVDTAGMRKKGKVYETTEKYSVLRALKAIDRSEVVAVVLDGEEGIIEQDKRIAGYAHEAGKAVVIVVNKWDAVDKDESTMKEFEENIRDHFQFLDYAPILFMSALTKKRIHTLMPAIIKASENHSLRVQTNVLNDVIMDAVAMNPTPTHNGSRLKIYYATQVSVKPPSFVVFVNDPELMHFSYERFLENRIRDAFGFEGTPIKIFARARK,soluble
21,MKMDYILSDFAQKQGYAVESYEIVDSTNYIAQQKAHAGHHGYLWVVAKEQSQGRARRGRTWSSPKGNLYSSLLLVEDIVHQTAAQLGFVAGVSVVETIKQFIKDEKQTSDIVSLKWPNDILLRGAKSSGILLEIFKLPSQQYALVIGIGINVKYHYEDAPYPTSSLKNIGLDIETEQLFTVLTEYFSKNYLLWKQLGGCDRIREKWLLYSAHSGQYVKIVNDEKIIEGIFDGLDNDFNCVIKQKNGQQAVITAGDVHFGSSASVNAGCY,not soluble
